Test results as given in the supplement of paper PMC9233669.
Variants at the floor of the assay were thinned out.

How the values were obtained:
biotinyl-Ile-oxazolone = experiment: self-aminoacylation, catalytic enhancement (BIO) (fold over background); higher = more active; k-Seq, kA / k0A0; sequences stand for … in GGGAAUGGAUCCACAUCUACGAAUUC…UUCACUGCAGACUUGACGAAGCUG
In short: (§1)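 Each biotinyl-aminoacyl-oxazolone, at 2–1250 μM, was incubated with mutagenized RNA pools (0.43 μM) carrying a 21-nt variable region. The 50 μL reactions contained HEPES/NaCl/KCl/MgCl2/CaCl2 buffer with 5% acetonitrile at pH 6.9–7.0 and ran for 90 minutes at room temperature. After streptavidin capture, RNA was measured by qPCR in triplicate and by Illumina sequencing, and catalytic enhancement was calculated as median kA over the uncatalyzed rate from a pseudo-first-order fit of per-sequence fraction reacted.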

biotinyl-Met-oxazolone = experiment: self-aminoacylation, catalytic enhancement (BMO) (fold over background); higher = more active; k-Seq, kA / k0A0; sequences stand for … in GGGAAUGGAUCCACAUCUACGAAUUC…UUCACUGCAGACUUGACGAAGCUG
In short: as §1

biotinyl-Trp-oxazolone = experiment: self-aminoacylation, catalytic enhancement (BWO) (fold over background); higher = more active; k-Seq, kA / k0A0; sequences stand for … in GGGAAUGGAUCCACAUCUACGAAUUC…UUCACUGCAGACUUGACGAAGCUG
In short: as §1

biotinyl-Val-oxazolone = experiment: self-aminoacylation, catalytic enhancement (BVO) (fold over background); higher = more active; k-Seq, kA / k0A0; sequences stand for … in GGGAAUGGAUCCACAUCUACGAAUUC…UUCACUGCAGACUUGACGAAGCUG
In short: as §1

biotinyl-Leu-oxazolone = experiment: self-aminoacylation, catalytic enhancement (BLO) (fold over background); higher = more active; k-Seq, kA / k0A0; sequences stand for … in GGGAAUGGAUCCACAUCUACGAAUUC…UUCACUGCAGACUUGACGAAGCUG
In short: as §1

biotinyl-Phe-oxazolone = experiment: self-aminoacylation, catalytic enhancement (BFO) (fold over background); higher = more active; k-Seq, kA / k0A0; sequences stand for … in GGGAAUGGAUCCACAUCUACGAAUUC…UUCACUGCAGACUUGACGAAGCUG
In short: as §1

AAGUUACCUAAUAGUCGCAAG [Fam3.1 aminoacylation ribozyme variant]
self-aminoacylation (biotinyl-Ile-oxazolone): 1.25
self-aminoacylation (biotinyl-Met-oxazolone): 1.44
self-aminoacylation (biotinyl-Trp-oxazolone): 1.74
self-aminoacylation (biotinyl-Val-oxazolone): 1.4
self-aminoacylation (biotinyl-Leu-oxazolone): 1.39
self-aminoacylation (biotinyl-Phe-oxazolone): 2.52

AAGUUAGCAAAUAGUCGCAAG [Fam3.1 aminoacylation ribozyme variant]
self-aminoacylation (biotinyl-Ile-oxazolone): 1.42
self-aminoacylation (biotinyl-Met-oxazolone): 1.44
self-aminoacylation (biotinyl-Trp-oxazolone): 1.36
self-aminoacylation (biotinyl-Val-oxazolone): 1.23
self-aminoacylation (biotinyl-Leu-oxazolone): 1.32
self-aminoacylation (biotinyl-Phe-oxazolone): 2.37

AAGUUAGCUAAUAGUCGCAAA [Fam3.1 aminoacylation ribozyme variant]
self-aminoacylation (biotinyl-Ile-oxazolone): 2.01
self-aminoacylation (biotinyl-Met-oxazolone): 1.47
self-aminoacylation (biotinyl-Trp-oxazolone): 1.06
self-aminoacylation (biotinyl-Val-oxazolone): 1.39
self-aminoacylation (biotinyl-Leu-oxazolone): 1.64
self-aminoacylation (biotinyl-Phe-oxazolone): 2.51

AAGUUAGCUCAUAGUCGCAAG [Fam3.1 aminoacylation ribozyme variant]
self-aminoacylation (biotinyl-Ile-oxazolone): 1.85
self-aminoacylation (biotinyl-Met-oxazolone): 1.88
self-aminoacylation (biotinyl-Trp-oxazolone): 1.81
self-aminoacylation (biotinyl-Val-oxazolone): 1.61
self-aminoacylation (biotinyl-Leu-oxazolone): 2.45
self-aminoacylation (biotinyl-Phe-oxazolone): 3.16

AAGUUCCCUAAUAGUCGCAAG [Fam3.1 aminoacylation ribozyme variant]
self-aminoacylation (biotinyl-Ile-oxazolone): 1.12
self-aminoacylation (biotinyl-Met-oxazolone): 0.931
self-aminoacylation (biotinyl-Trp-oxazolone): 0.613
self-aminoacylation (biotinyl-Val-oxazolone): 0.992
self-aminoacylation (biotinyl-Leu-oxazolone): 0.965
self-aminoacylation (biotinyl-Phe-oxazolone): 0.485

AAGUUCGCUAAAAGUCGCAAG [Fam3.1 aminoacylation ribozyme variant]
self-aminoacylation (biotinyl-Ile-oxazolone): 2.42
self-aminoacylation (biotinyl-Met-oxazolone): 2.51
self-aminoacylation (biotinyl-Trp-oxazolone): 3.39
self-aminoacylation (biotinyl-Val-oxazolone): 1.67
self-aminoacylation (biotinyl-Leu-oxazolone): 2.68
self-aminoacylation (biotinyl-Phe-oxazolone): 4.4

AAGUUCGCUAAUAGGCGCAAG [Fam3.1 aminoacylation ribozyme variant]
self-aminoacylation (biotinyl-Ile-oxazolone): 1.23
self-aminoacylation (biotinyl-Met-oxazolone): 0.965
self-aminoacylation (biotinyl-Trp-oxazolone): 1.2
self-aminoacylation (biotinyl-Val-oxazolone): 1.16
self-aminoacylation (biotinyl-Leu-oxazolone): 1.03
self-aminoacylation (biotinyl-Phe-oxazolone): 1.58

AAGUUCGCUAAUAGUAGCAAG [Fam3.1 aminoacylation ribozyme variant]
self-aminoacylation (biotinyl-Ile-oxazolone): 1.67
self-aminoacylation (biotinyl-Met-oxazolone): 1.55
self-aminoacylation (biotinyl-Trp-oxazolone): 1.24
self-aminoacylation (biotinyl-Val-oxazolone): 1.26
self-aminoacylation (biotinyl-Leu-oxazolone): 1.28
self-aminoacylation (biotinyl-Phe-oxazolone): 3.5

AAGUUCGCUAAUAGUCGCAAG [Fam3.1 aminoacylation ribozyme variant]
self-aminoacylation (biotinyl-Ile-oxazolone): 2.04
self-aminoacylation (biotinyl-Met-oxazolone): 1.91
self-aminoacylation (biotinyl-Trp-oxazolone): 2.94
self-aminoacylation (biotinyl-Val-oxazolone): 1.81
self-aminoacylation (biotinyl-Leu-oxazolone): 1.94
self-aminoacylation (biotinyl-Phe-oxazolone): 6.36

AAGUUCGCUAAUAGUCGCAGG [Fam3.1 aminoacylation ribozyme variant]
self-aminoacylation (biotinyl-Ile-oxazolone): 2.54
self-aminoacylation (biotinyl-Met-oxazolone): 2.87
self-aminoacylation (biotinyl-Trp-oxazolone): 2.2
self-aminoacylation (biotinyl-Val-oxazolone): 1.89
self-aminoacylation (biotinyl-Leu-oxazolone): 3.87
self-aminoacylation (biotinyl-Phe-oxazolone): 2.51

AAGUUCGCUAAUAGUCGGAAG [Fam3.1 aminoacylation ribozyme variant]
self-aminoacylation (biotinyl-Ile-oxazolone): 1.2
self-aminoacylation (biotinyl-Met-oxazolone): 0.621
self-aminoacylation (biotinyl-Trp-oxazolone): 1.07
self-aminoacylation (biotinyl-Val-oxazolone): 0.743
self-aminoacylation (biotinyl-Leu-oxazolone): 1.17
self-aminoacylation (biotinyl-Phe-oxazolone): 2.48

AAGUUCGCUACUAGUCGCAAG [Fam3.1 aminoacylation ribozyme variant]
self-aminoacylation (biotinyl-Ile-oxazolone): 2.08
self-aminoacylation (biotinyl-Met-oxazolone): 1.67
self-aminoacylation (biotinyl-Trp-oxazolone): 1.34
self-aminoacylation (biotinyl-Val-oxazolone): 1.79
self-aminoacylation (biotinyl-Leu-oxazolone): 1.5
self-aminoacylation (biotinyl-Phe-oxazolone): 2.28

AAGUUCGCUUAUAGUCGCAAG [Fam3.1 aminoacylation ribozyme variant]
self-aminoacylation (biotinyl-Ile-oxazolone): 1.86
self-aminoacylation (biotinyl-Met-oxazolone): 2.03
self-aminoacylation (biotinyl-Trp-oxazolone): 2.23
self-aminoacylation (biotinyl-Val-oxazolone): 1.5
self-aminoacylation (biotinyl-Leu-oxazolone): 1.84
self-aminoacylation (biotinyl-Phe-oxazolone): 1.99

AAGUUCGUUAAUAGUCGCAAG [Fam3.1 aminoacylation ribozyme variant]
self-aminoacylation (biotinyl-Ile-oxazolone): 1.93
self-aminoacylation (biotinyl-Met-oxazolone): 1.77
self-aminoacylation (biotinyl-Trp-oxazolone): 1.56
self-aminoacylation (biotinyl-Val-oxazolone): 1.53
self-aminoacylation (biotinyl-Leu-oxazolone): 1.94
self-aminoacylation (biotinyl-Phe-oxazolone): 3.09

AAGUUGACUAAUAGUCGCAAG [Fam3.1 aminoacylation ribozyme variant]
self-aminoacylation (biotinyl-Ile-oxazolone): 1.18
self-aminoacylation (biotinyl-Met-oxazolone): 0.839
self-aminoacylation (biotinyl-Trp-oxazolone): 1.19
self-aminoacylation (biotinyl-Val-oxazolone): 0.949
self-aminoacylation (biotinyl-Leu-oxazolone): 0.935
self-aminoacylation (biotinyl-Phe-oxazolone): 1.5

AAGUUGGCUAAGAGUCGCAAG [Fam3.1 aminoacylation ribozyme variant]
self-aminoacylation (biotinyl-Ile-oxazolone): 2.02
self-aminoacylation (biotinyl-Met-oxazolone): 1.68
self-aminoacylation (biotinyl-Trp-oxazolone): 2.13
self-aminoacylation (biotinyl-Val-oxazolone): 1.53
self-aminoacylation (biotinyl-Leu-oxazolone): 1.98
self-aminoacylation (biotinyl-Phe-oxazolone): 1.91

AAGUUGGCUAAUACUCGCAAG [Fam3.1 aminoacylation ribozyme variant]
self-aminoacylation (biotinyl-Ile-oxazolone): 1.39
self-aminoacylation (biotinyl-Met-oxazolone): 1.2
self-aminoacylation (biotinyl-Trp-oxazolone): 1.45
self-aminoacylation (biotinyl-Val-oxazolone): 1.39
self-aminoacylation (biotinyl-Leu-oxazolone): 0.979
self-aminoacylation (biotinyl-Phe-oxazolone): 1.44

AAGUUGGCUAAUAGUGGCAAG [Fam3.1 aminoacylation ribozyme variant]
self-aminoacylation (biotinyl-Ile-oxazolone): 0.654
self-aminoacylation (biotinyl-Met-oxazolone): 0.931
self-aminoacylation (biotinyl-Trp-oxazolone): 1.13
self-aminoacylation (biotinyl-Val-oxazolone): 0.731
self-aminoacylation (biotinyl-Leu-oxazolone): 0.655
self-aminoacylation (biotinyl-Phe-oxazolone): 0.667

AAGUUGGCUAAUCGUCGCAAG [Fam3.1 aminoacylation ribozyme variant]
self-aminoacylation (biotinyl-Ile-oxazolone): 1.76
self-aminoacylation (biotinyl-Met-oxazolone): 1.68
self-aminoacylation (biotinyl-Trp-oxazolone): 2.24
self-aminoacylation (biotinyl-Val-oxazolone): 1.51
self-aminoacylation (biotinyl-Leu-oxazolone): 1.75
self-aminoacylation (biotinyl-Phe-oxazolone): 2.73

AAGUUGGCUGAUAGUCGCAAG [Fam3.1 aminoacylation ribozyme variant]
self-aminoacylation (biotinyl-Ile-oxazolone): 1.8
self-aminoacylation (biotinyl-Met-oxazolone): 1.49
self-aminoacylation (biotinyl-Trp-oxazolone): 1.86
self-aminoacylation (biotinyl-Val-oxazolone): 1.7
self-aminoacylation (biotinyl-Leu-oxazolone): 1.55
self-aminoacylation (biotinyl-Phe-oxazolone): 2.34

AAGUUGGCUUAUAGUCGCAAG [Fam3.1 aminoacylation ribozyme variant]
self-aminoacylation (biotinyl-Ile-oxazolone): 1.59
self-aminoacylation (biotinyl-Met-oxazolone): 1.94
self-aminoacylation (biotinyl-Trp-oxazolone): 1.7
self-aminoacylation (biotinyl-Val-oxazolone): 1.61
self-aminoacylation (biotinyl-Leu-oxazolone): 1.64
self-aminoacylation (biotinyl-Phe-oxazolone): 2.35

AAGUUGGUUAAUAGUCGCAAG [Fam3.1 aminoacylation ribozyme variant]
self-aminoacylation (biotinyl-Ile-oxazolone): 1.4
self-aminoacylation (biotinyl-Met-oxazolone): 1.42
self-aminoacylation (biotinyl-Trp-oxazolone): 1.81
self-aminoacylation (biotinyl-Val-oxazolone): 1.24
self-aminoacylation (biotinyl-Leu-oxazolone): 1.46
self-aminoacylation (biotinyl-Phe-oxazolone): 1.87

AAGUUUACUAACAGUCGCAAG [Fam3.1 aminoacylation ribozyme variant]
self-aminoacylation (biotinyl-Ile-oxazolone): 1.58
self-aminoacylation (biotinyl-Met-oxazolone): 1.48
self-aminoacylation (biotinyl-Trp-oxazolone): 1.38
self-aminoacylation (biotinyl-Val-oxazolone): 1.63
self-aminoacylation (biotinyl-Leu-oxazolone): 1.95
self-aminoacylation (biotinyl-Phe-oxazolone): 2.91
